Results taken from publication PMC4900146 (Biochemistry, 2016).

Target: calmodulin (full-length wild-type CaM) (human, UniProt P0DP23 1-149)
Assay: circular dichroism

binding result: binds
B1: pCaN, peptide encompassing the CaM-binding domain of calcineurin A (residues 391-414) (peptide)
peptide: not shown
